Measured values reported in paper PMC8800102.
Like-named read-outs stand apart in the source and are kept apart here.

How the values were obtained:
Assay in all cases: NMR titration
[1] = biological target: T1, Sds3 capped Tudor domain (CTD) (mouse, UniProt Q8BR65 250-326)
T1 sequence: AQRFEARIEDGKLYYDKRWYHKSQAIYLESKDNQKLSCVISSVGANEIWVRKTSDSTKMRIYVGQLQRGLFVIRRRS

[2] = biological target: T1, Sds3 capped Tudor domain (CTD); remark: listed apart in the source
[3] = biological target: T1, Sds3 capped Tudor domain (CTD); remark: listed apart in the source

B1: random RNA 8mer (ssRNA)
RNA: AACUGUCG
- binding result [1]: no binding

B2: SELEX 7mer motif (ssDNA)
DNA: TGTGGTT
- binding result [2]: no binding

B3: T2G4 (structured_DNA)
DNA: TTGGGG
- binding result [3]: binds
